Here are results for 3 molecules from patent publication US20210115130A1 (Innovent, published 2021).

The target of test [1] is T1, IL-23 (R&D Systems, Catalog No. 1290-IL-500/CF) (UniProt Q9NPF7 20-189; P29460 23-328).
T1 sequence (looked up) 1: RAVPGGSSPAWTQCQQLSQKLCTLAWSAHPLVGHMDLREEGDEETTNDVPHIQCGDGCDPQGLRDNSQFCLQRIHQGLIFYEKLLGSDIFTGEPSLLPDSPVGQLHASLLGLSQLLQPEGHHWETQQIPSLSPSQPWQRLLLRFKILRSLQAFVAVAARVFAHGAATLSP
T1 sequence (looked up) 2: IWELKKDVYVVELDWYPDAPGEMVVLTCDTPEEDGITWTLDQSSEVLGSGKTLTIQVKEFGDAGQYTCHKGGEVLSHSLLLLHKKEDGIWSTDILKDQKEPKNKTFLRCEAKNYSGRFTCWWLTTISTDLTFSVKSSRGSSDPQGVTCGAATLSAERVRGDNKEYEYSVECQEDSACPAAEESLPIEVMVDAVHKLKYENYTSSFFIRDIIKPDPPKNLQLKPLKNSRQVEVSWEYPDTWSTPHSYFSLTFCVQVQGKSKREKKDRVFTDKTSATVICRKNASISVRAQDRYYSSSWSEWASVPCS
As to the kind of experiment: cell-based or functional assay.

In test [2] the target is T2, human IL-12 (ACRO Biosystems, Cat #IL2-H4210) (human, UniProt P29459 23-219; P29460 23-328).
T2 construct: Bought protein
T2 sequence (looked up) 1: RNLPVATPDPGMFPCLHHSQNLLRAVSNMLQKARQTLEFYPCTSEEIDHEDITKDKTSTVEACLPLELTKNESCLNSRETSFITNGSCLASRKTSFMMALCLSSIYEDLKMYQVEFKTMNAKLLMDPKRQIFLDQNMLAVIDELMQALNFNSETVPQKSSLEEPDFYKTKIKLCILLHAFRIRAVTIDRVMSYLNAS
T2 sequence (looked up) 2: T1 sequence (looked up) 2
As to the kind of experiment: ForteBio BLI, antibody loaded on AHQ sensor. As for the experimental part:
(§1) The ForteBio affinity assay was performed according to the prior art (Estep, P, et al., High throughput solution based measurement of antibody-antigen affinity and epitope binning MAbs, 2013.5(2): p. 270-8). Briefly, the sensor was equilibrated offline in an assay buffer for […], and was equilibrated online for 60 s to establish a baseline. The purified antibodies obtained as described above were loaded online onto an AHQ sensor (ForteBio) for the ForteBio affinity assay. The sensor with the loaded antibodies was then exposed to 100 nM […] antigens for […] before transferring the sensor to the assay buffer for […] of dissociation to measure the dissociation rate. The kinetic analysis was performed using a 1:1 binding model.
(§2) The equilibrium dissociation constant (KD) for binding of the above 17D1 humanized antibody and 17D1-YTE antibody of the present invention to human interleukin protein human IL-12 (ACRO Biosystems, Cat #IL2-H4210) or human IL-12p40 (ACRO Biosystems, Cat #NK2-H52H7) of the same family was measured by biological optical interferometry (ForteBio) (Table 18).
In general terms: Biolayer interferometry detects binding as a change in optical thickness at a sensor tip.

In test [3] the target is T3, human IL-12p40 (ACRO Biosystems, Cat #NK2-H52H7) (human, UniProt P29460 23-328).
T3 construct: Bought protein
T3 sequence (looked up): T1 sequence (looked up) 2
The test can be described thus: ForteBio BLI, antibody loaded on AHQ sensor. As for the experimental part: as §1, §2

Test [4] deals with T4, human IL23 protein (human IL12p40 - linker - human IL23p19 - His tag) (human, UniProt P29460 23-328; Q9NPF7 21-189).
T4 construct: range 23-328;range 21-189; Single-chain fusion expressed in Expi293 cells; also called IL-23 antigen
T4 sequence: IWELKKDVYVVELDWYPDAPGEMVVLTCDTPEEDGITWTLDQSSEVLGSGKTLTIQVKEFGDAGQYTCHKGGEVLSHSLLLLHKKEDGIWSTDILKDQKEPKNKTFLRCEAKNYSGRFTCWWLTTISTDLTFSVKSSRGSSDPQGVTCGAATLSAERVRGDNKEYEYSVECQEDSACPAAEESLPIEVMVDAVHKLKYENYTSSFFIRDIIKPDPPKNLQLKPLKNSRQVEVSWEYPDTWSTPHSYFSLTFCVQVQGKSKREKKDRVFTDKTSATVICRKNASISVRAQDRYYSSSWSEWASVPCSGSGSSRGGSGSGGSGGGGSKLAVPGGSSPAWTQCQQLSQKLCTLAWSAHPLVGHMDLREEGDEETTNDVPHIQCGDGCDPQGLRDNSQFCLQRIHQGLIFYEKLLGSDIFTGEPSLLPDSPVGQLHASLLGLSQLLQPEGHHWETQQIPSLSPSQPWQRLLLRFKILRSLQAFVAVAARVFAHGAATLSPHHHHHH
As to the kind of experiment: ForteBio BLI, antibody on AHQ sensor, 1:1 model. As for the experimental part:
The equilibrium dissociation constant (KD) of the above 17D1 humanized antibody and 17D1-YTE of the present invention to human IL-23p19 was measured by biological optical interferometry (ForteBio).
as §1

Test [5] has as its target cynomolgus monkey IL23 protein (cynomolgus IL12p40 - linker - cynomolgus IL23p19 - His tag) (cynomolgus monkey). As to the kind of experiment: ForteBio BLI, antibody on AHQ sensor, 1:1 model. As for the experimental part:
as §1

For test [6], the target named is T5, human FcRn (Acro, Catalog No. FCM-H5286) (human, UniProt P55899 24-297; P61769 21-119).
T5 construct: Bought protein
The test can be described thus: ForteBio Octet RED96 BLI, biotinylated antibody on SA sensor, FcRn in solution, 1:1 model. As for the experimental part: First, the 17D1 humanized antibody, 17D1-YTE, and Gmab (guselkumab) prepared as described above were labeled with biotin, with the molar ratio of antibody to biotin being 1:3. The biotin was removed using a desalting column and the labeled samples were re-measured and stored for later use.
(§3) An appropriate amount of SA sensor (Fortebio, Catalog No. 18-5019) was soaked in the analysis buffer for 30 min. The biotinylated 17D1 humanized antibody, 17D1-YTE, and Gmab were diluted to 100 nM, and human FcRn (Acro, Catalog No. FCM-H5286) was serially two-fold diluted to 5 concentrations (5, 2.5, 1.25, 0.625, 0.3125 μg/mL). The sensor was first equilibrated in the analysis buffer for 120 s. Then the biotinylated antibodies were loaded on the SA sensor for 100 s of immobilization, and the sensor was equilibrated for another 120 s after immobilization. After the baseline was stabilized, the serially diluted FcRns binded to the sensors with the same antibody immobilization level. After 100 s for binding, the sensors were equilibrated in analysis buffer for 120 s to measure the binding and dissociation. The experimental data were analyzed using a 1:1 model.

Test [7] addresses T5, human FcRn (Acro, Catalog No. FCM-H5286). As to the kind of experiment: ForteBio Octet RED96 BLI, biotinylated antibody on SA sensor. As for the experimental part:
In this assay, the ForteBio Octet RED96 System was used to detect the kinetic constant (KD) for binding of 17D1 humanized antibody and 17D1-YTE to human FcRn (Acro, Catalog No. FCM-H5286). The affinity of 17D1-YTE to human FcRn was three times those of 17D1 humanized antibody and reference antibody Gmab.
as §3

In general, Kd refers to a measure of binding affinity in units of concentration. The term koff denotes the rate constant with which the complex falls apart. In general, kon refers to the rate constant with which the complex forms.

T5 sequence (P55899 24-297 limits assumed, chain 1 of 2): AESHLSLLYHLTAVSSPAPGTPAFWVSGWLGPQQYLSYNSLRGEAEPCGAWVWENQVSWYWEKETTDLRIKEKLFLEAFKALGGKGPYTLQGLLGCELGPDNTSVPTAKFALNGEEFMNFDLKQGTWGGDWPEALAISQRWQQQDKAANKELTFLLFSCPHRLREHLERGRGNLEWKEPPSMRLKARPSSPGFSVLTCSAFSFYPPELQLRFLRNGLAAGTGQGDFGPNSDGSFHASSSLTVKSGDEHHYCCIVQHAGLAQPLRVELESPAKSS
T5 sequence (P61769 21-119 limits assumed, chain 2 of 2): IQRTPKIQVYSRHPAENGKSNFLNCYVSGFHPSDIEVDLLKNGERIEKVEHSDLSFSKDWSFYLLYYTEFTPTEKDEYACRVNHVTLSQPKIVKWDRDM

B1: 17D1 humanized antibody (antibody, human IgG1, kappa)
heavy: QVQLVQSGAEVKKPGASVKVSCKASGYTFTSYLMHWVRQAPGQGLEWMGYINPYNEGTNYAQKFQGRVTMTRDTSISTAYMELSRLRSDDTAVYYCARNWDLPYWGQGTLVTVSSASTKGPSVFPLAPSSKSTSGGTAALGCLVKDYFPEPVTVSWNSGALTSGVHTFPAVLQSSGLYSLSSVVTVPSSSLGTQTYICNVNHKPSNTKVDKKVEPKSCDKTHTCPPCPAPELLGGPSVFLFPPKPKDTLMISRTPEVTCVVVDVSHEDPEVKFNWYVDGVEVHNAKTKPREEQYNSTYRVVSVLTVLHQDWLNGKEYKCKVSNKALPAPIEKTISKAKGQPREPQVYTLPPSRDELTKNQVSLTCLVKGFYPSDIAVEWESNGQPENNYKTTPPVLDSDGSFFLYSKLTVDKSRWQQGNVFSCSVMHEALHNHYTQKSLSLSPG
light: DIQMTQSPSSLSASVGDRVTITCRASQSISDYLHWYQQKPGKAPKLLIKYASQSMSGVPSRFSGSGSGSDFTLTISSLQPEDFATYYCQQGHSFPFTFGQGTKLEIKRTVAAPSVFIFPPSDEQLKSGTASVVCLLNNFYPREAKVQWKVDNALQSGNSQESVTEQDSKDSTYSLSSTLTLSKADYEKHKVYACEVTHQGLSSPVTKSFNRGEC
notes: Biotinylated for the FcRn assay; also called humanized antibody 17D1; copies: 2 + 2
Consider B1, for which the “IC50 (inhibition of IL-23-induced IL-17 secretion in mouse splenic lymphocytes, IL-17 ELISA)” value in test [1] was 0.113 µg/mL. Also, the binding result in test [2] is recorded as “no binding (tested: 100 nM)”. In addition, the binding result in test [3] is listed as “no binding (tested: 100 nM)”. Further, in test [4], the Kd was determined as 1.75 nM, the off-rate constant (koff) came to 0.000164 s⁻¹ and the kon came out at 93700 M⁻¹ s⁻¹. In test [5], this molecule yielded a Kd of 1.67 nM, a Response of 0.215, a koff of 8.44e-05 s⁻¹ and a kon of 50400 M⁻¹ s⁻¹. In test [6], this molecule gave a Kd of 12.3 nM, an off-rate constant (koff) of 0.0141 s⁻¹ and an association rate constant (kon) of 1.15e+06 M⁻¹ s⁻¹.

B2: 17D1-YTE (antibody, human IgG1, kappa)
heavy: QVQLVQSGAEVKKPGASVKVSCKASGYTFTSYLMHWVRQAPGQGLEWMGYINPYNEGTNYAQKFQGRVTMTRDTSISTAYMELSRLRSDDTAVYYCARNWDLPYWGQGTLVTVSSASTKGPSVFPLAPSSKSTSGGTAALGCLVKDYFPEPVTVSWNSGALTSGVHTFPAVLQSSGLYSLSSVVTVPSSSLGTQTYICNVNHKPSNTKVDKKVEPKSCDKTHTCPPCPAPELLGGPSVFLFPPKPKDTLYITREPEVTCVVVDVSHEDPEVKFNWYVDGVEVHNAKTKPREEQYNSTYRVVSVLTVLHQDWLNGKEYKCKVSNKALPAPIEKTISKAKGQPREPQVYTLPPSRDELTKNQVSLTCLVKGFYPSDIAVEWESNGQPENNYKTTPPVLDSDGSFFLYSKLTVDKSRWQQGNVFSCSVMHEALHNHYTQKSLSLSPG
light: B1 light
notes: Biotinylated for the FcRn assay; also called 17D1-YTE antibody; copies: 2 + 2
On to B2, for which the “IC50 (inhibition of IL-23-induced IL-17 secretion in mouse splenic lymphocytes, IL-17 ELISA)” value in test [1] is 0.114 µg/mL. In addition, the binding result in test [2] and in test [3] was “no binding (tested: 100 nM)” throughout. The Kd in test [4] came to 0.611 nM; in test [5] it was 0.37 nM; in test [6], 3.34 nM. Moreover, the dissociation rate constant (koff) was 5.69e-05 s⁻¹ in test [4], 2.16e-05 s⁻¹ in test [5] and 0.0033 s⁻¹ in test [6]. In addition, the figures for the kon in test [4], in test [5] and in test [6] were 93100 M⁻¹ s⁻¹, 58400 M⁻¹ s⁻¹ and 988000 M⁻¹ s⁻¹, respectively. In addition, the Response in test [5] is 0.207. Besides, the “fold affinity against 17D1 humanized antibody and Gmab” value in test [7] is 3 fold.

B3: guselkumab (antibody)
chain 1: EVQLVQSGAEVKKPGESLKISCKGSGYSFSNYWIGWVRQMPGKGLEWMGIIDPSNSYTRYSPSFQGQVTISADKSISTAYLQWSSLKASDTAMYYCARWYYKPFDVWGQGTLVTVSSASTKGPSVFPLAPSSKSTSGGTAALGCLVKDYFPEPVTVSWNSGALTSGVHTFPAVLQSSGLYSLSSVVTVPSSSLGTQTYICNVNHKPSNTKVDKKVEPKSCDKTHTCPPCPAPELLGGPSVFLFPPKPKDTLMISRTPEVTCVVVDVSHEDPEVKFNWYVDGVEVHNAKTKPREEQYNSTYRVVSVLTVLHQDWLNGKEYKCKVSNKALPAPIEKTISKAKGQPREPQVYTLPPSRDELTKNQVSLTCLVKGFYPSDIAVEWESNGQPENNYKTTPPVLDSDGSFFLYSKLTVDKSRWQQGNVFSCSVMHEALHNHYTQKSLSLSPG
chain 2: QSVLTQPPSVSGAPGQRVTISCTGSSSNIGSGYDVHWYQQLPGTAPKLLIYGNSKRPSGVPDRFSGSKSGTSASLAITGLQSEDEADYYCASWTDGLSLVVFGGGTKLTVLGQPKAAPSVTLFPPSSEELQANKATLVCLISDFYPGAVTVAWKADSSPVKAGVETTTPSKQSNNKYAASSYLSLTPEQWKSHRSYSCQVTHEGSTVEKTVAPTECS
In the case of B3, in test [1], the “IC50 (inhibition of IL-23-induced IL-17 secretion in mouse splenic lymphocytes, IL-17 ELISA)” value came to 0.124 µg/mL. In test [4], this molecule registered a Kd of 1.04 nM, a koff of 0.00012 s⁻¹ and a kon of 115000 M⁻¹ s⁻¹. In test [5], this molecule returned a Kd of 0.941 nM, a Response of 0.284, a koff of 5.8e-05 s⁻¹ and a kon of 61600 M⁻¹ s⁻¹. In test [6], this molecule displayed a Kd of 13.2 nM, a koff of 0.0148 s⁻¹ and a kon of 1.12e+06 M⁻¹ s⁻¹.
